The target in the test is human p75 neurotrophin receptor (p75NTR) expressed in CHO-K1 cells (human) (UniProt P08138). Briefly: AP fusion protein on CHO-K1 cells expressing cell-surface human p75NTR, fluorescent AP substrate.
Chain of human p75 neurotrophin receptor (p75NTR) expressed in CHO-K1 cells (human) (P08138 29-427): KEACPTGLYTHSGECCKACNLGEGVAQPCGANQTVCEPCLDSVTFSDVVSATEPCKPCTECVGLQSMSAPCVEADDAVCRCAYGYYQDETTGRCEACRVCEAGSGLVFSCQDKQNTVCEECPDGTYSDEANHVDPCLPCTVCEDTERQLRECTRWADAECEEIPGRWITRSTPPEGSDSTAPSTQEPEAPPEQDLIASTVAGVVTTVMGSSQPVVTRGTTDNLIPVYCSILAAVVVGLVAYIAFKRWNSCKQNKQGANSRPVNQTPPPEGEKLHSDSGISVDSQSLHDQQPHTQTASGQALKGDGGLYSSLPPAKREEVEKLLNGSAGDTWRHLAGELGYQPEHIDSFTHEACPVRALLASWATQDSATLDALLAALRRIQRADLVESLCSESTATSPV

Turning to NgR-AP, the fold bound against mock-transfected control cells was 5 fold.

These data come from patent US20080027001A1, “NOGO RECEPTOR FUNCTIONAL MOTIFS, PEPTIDE MIMETICS, AND MUTATED FUNCTIONAL MOTIFS RELATED THERETO, AND METHODS OF USING THE SAME” (priority 2006, published 2008).
